Here are results for 1 molecule from patent US20250282851A1.

Experiment [1] concerns the target purified truncated Gn protein of Rift Valley fever virus (Rift Valley fever virus).
The target in experiment [2] is Gn protein of Rift Valley fever virus (Rift Valley fever virus).
Experiment [3] addresses purified truncated Gn protein of Rift Valley fever virus (Rift Valley fever virus). The experiment is described as follows: ELISA, truncated Gn coated at 2 ug/mL, 50 uL 293T expression supernatant. In general terms: ELISA stands for enzyme-linked immunosorbent assay.

B1: monoclonal antibody A38 (antibody, V domains shown)
VH: VQLVQELGPGLVKPSETLSLTCAVSGYSISSPYSWGWIRQPPGKGLEWIGGVYSSGEIRHLDPSLKSRVTLSLDTSKNQFSLKLNSVTAADTAVYFCASANGGVAQDAFDFWGQGLRVTVSS
VL: QPVLTQPPSLSAPPGASARLPCTLSSDLSVTSLNIYWYQQKSGSAPRLFLYYYSDSDKQLGPGVPSRVSGSKETSSNTALLFISGLQPEDEADYYCQVYDSSAYVLFGGGTRLTVLG
As a reminder, the EC50 is the concentration that produces a half-maximal response. A low value points to a more potent agent. As a reminder, the Kd is the free concentration of one partner at which half of the binding sites on the other are occupied at equilibrium, for simple one-to-one binding. A higher Kd goes with lower affinity. Broadly, the koff is the first-order rate constant of dissociation. A higher koff goes with a short-lived complex. The term kon denotes the rate constant with which the complex forms. Read a low kon as slow association. In experiment [1], B1 displayed an EC50 of 4.51 ng/mL. In experiment [2], this molecule came in with a Kd of 972 pM, a koff of 0.00013 s⁻¹ and a kon of 133000 M⁻¹ s⁻¹. In experiment [3], this molecule registered an OD value (OD450 nm-OD630 nm) of 1.4 OD.
